Measured values reported in patent publication US20250034594A1, “RNA-GUIDED GENOME RECOMBINEERING AT KILOBASE SCALE” (THE BOARD OF TRUSTEES OF THE LELAND STANFORD JUNIOR …, priority 2021, published 2025).

B1: SSAP_63: SEQ ID NO: 232 (protein)
chain: SELQQAAQGQADAGPVQVIYSHAKEIQNVLAKGTDMDRWLQMARLAVMRDPNLVNAAKRDPGSLMQAMLDCAEKGHIPGTEDYYLVPRKGGIQGMESWKGIAKRIMRSGRYQSIVAEVVYEGEDFDFNPNTMDRPVHQIKYMARTSGQPVLSYAYAVDHEGKPSTIAVADPRYIAKVKANSKGTVWADWDEAMYKKTAVKMLVDYVDTSSTDRRGVSTVQVDGPVGTFIDGVLEIEGGDQ
B2: SSAP_161: SEQ ID NO: 330; Solobacterium moorei (protein, listed as Solobacterium moorei)
chain: TEIKAAKAPATVAKAGVSTQNKTIKDYITIMKPEIEKALPSTITPERFTRITLSAVSNNPKLQACSPSTFLSAMMQSAQLGLEPNTPLGQAYLIPYGNSCQFQLGYKGLLQLAYNSGQIKTIRTETVYENDEFKYELGLHSDLVHVPAMSNRGNPTAYYAVIEYTNGGYGFEVMSHDDVLEHAKKFSKTFNNGPWQSDFESMAKKTVLKQALKYAPLSTELVSKINTDETVKSSISDHMEEVKNDIDLSQIIDAETGEIHE
B3: SSAP_322: SEQ ID NO: 491; Candidatus Dependentiae bacterium (protein)
chain: CHVLNFQTDYKGEIKLAHKYSVRKIIDIYAKVVRDGDVLEIRVENGSQIVNFNPKVFNDGKIIGAFAVVKFVDGSLLYETMSKSEIDHTRVTFSKMPNGMAWKDSEGEMCRKTVLRRICKLIDLHFDSVEQEQAWNDGSDADLTKNEPVKPEIQNPFPTKAVEAVIVTEEEKLRKQLKDKDPTLQDWQIDALVREHKEANQ
modifications: Candidatus Dependentiae bacterium
B4: SSAP_131: SEQ ID NO: 300; Thermoclostridium stercorarium (protein, listed as Thermoclostridium stercorarium)
chain: TTVNQTELKNKLAEKAKTPAKTGNTVFDLIRKMEPEIKRALPKQISPERFARIAMTAVRNTPKLQACEPISFIAALMQSAQLGLEPNTPLGQAYLIPYGKEVQFQLGYQGMLTLAYRTGEYQSIYAMPVYANDEFEYEYGLNEKLVHKPAPDPEGEPIYYYAVYKLKNGGHGFVVMSRQQIERHRDKYSPSAKQGKFSPWNTDFDSMAKKTVLKQLLKYAPKSVEFATQIAQDETIKTEIAEDMTEVQGIEVEYEATDDQENQENQEQED
B5: SSAP_179: SEQ ID NO: 348; Acetoanaerobium noterae (protein, listed as Acetoanaerobium noterae)
chain: SNLKNELAKKANNSVTDGNKEPQTIKDWIKVMEPAIKKALPSVITPERFTRMALTAISVNPKLAECTPKSFMGSLMNAAQLGLEPNTPLGQAYLIPYKNKGNMEVQFQIGYKGLIELAYRSGEFANIYAKEVFENDEFEYEFGLEPVLKHKPASGNRGEVIAYYAVFKLTNGGFGFEVMSKEDITNHAKTYSQAYSSSYSPWSKNFDEMAKKTVLKKVLKYAPIKVEFVKQIVQDSTIKTEINSDMTEVESQNVFEAEETDYEVIDQEETK
B6: SSAP_79: SEQ ID NO: 248 (protein)
chain: EALLLRRWQMGNLTKTTGFALAPQNLEQAMQLATMICNSQLAPNNYKGKPEDTLVAMMMGHELGLNPLQSIQNIAVINGRPSIYGDALLALVQNSPAFGGIQESFDEDTMTATCTVWRKGGEKHTQHYSKDDADTAGLWGKQGPWKQHPKRMLAMRARGFAVRNQFADALAGLVTREEAEDMEKEINPTPAPQAQSKRIGQKQSRTQYSESDFNENFPKWKAAVESGKKTSEQIISMVSTKGDLTQGMIEAIESIEAGEPA
B7: SSAP_144: SEQ ID NO: 313; Romboutsia weinsteinii (protein, listed as Romboutsia weinsteinii)
chain: TNLKNTLKNKEAKGNNLAINPSYAMKQLMIKMKGEITSALPKELCSERFQRVALTAFNSNPKLQNCAPMTFIAAMMQSDQLGLEPNTPLGQAYLIPYKVKGIDKVQFQIGYKGLLELAHRSGRLKTLYAHEVRENDEFDIDYGLEQRLIHKPLLKGNRGEVIGYYAVYHLEHNGYSFVFMTYDEVLEHGKKYSKSFEGGIWEKEFDSMAKKTVIKKLLKYAPLSIEIQKAINFDESVKGSIDSDMLLVDKADESIDVEGNVLNQRGIKYGCI
B8: SSAP_80: SEQ ID NO: 249 (protein)
chain: GHLVSKTEQDYIKQHYAKGATDQEFEHFIGVCRARGLNPAANQIYFVKYRSKDGPAKPAFILSIDSLRLIAHRTGDYAGCSEPIFTDGGKACTVTVRRNLKSGETGNFSGMAFYDEQVQQKNGRPTSFWQSKPRTMLEKCAEAKALRKAFPQDLGQFYIREEMPPQYDEPIQVHKPKALEEPRFSKSDLSRRKGLNRKLSALGVDPSRFDEVATFLDGTPDRELGQKLKLWLKEAGYGVNQ
B9: SSAP_94: SEQ ID NO: 263; Providencia alcalifaciens (protein, listed as Providencia alcalifaciens)
chain: STPPLAKSDLQKTQGTEVKIKTNEQKLVEFINQPGMKAQLAAALPKHITSDRMIRIVSTEIRKTPSLANCDIQSFIGAVVQCSQLGLEPGNALGHAYLLPFGNGKSDNGQQNVQLIIGYRGMIDLARRSGQIISISARTVRQGDNFHFEYGLNENLTHIPEGNEDSPITHVYAVARLKDGGVQFEVMTYNQIEKVRNLSKAGKNGPWVTHWEEMAKKTVIRRLFKYLPVSIEMQKAVILDEKAEANIEQEHSAIFEAEFEEVDSNGN
B10: SSAP_297: SEQ ID NO: 466; Dysgonomonas capnocytophagoides (protein)
chain: STQQVQQQTKPLSLANFLNAPSTANFLKETLAEKKSEFVSNLIALCDADPKLAQCDPAQLMKCAMNATSLNLPLNKNLGYAYVIAYKGVPSFQIGYKGLIQLAIRTGQYKFINATEIREGEIRHNKITGEVIFNGEKPDAPIVGYMSYLELVNGFTASLYMTEEQIEQHALRFSQTYKNDKQYRSSTSKWSDPLARPTMCKKTVLKLLLGTYGLMTTEFAKALDSDSDDEVSTSGHRFEEAEIVQQGEPNEEQSDEPKRMEI
modifications: Dysgonomonas capnocytophagoides
B11: SSAP_311: SEQ ID NO: 480; Paenibacillus graminis (protein, listed as Paenibacillus graminis)
chain: TVAIETQVQETLDRILDSKHDALPSDFKKKRFSENCKVYVAEEKDLHKYTIDDIVANLFKGAVLGLDFLAKECHLITGGVDLKFQTDYKGEMKLTKKYSVRPMLDVYAKNVREGDIFREQIIEGRPAIHFDPLPFNASKIIGSFAIALFQDGGMVYESIPAGEIEEIRKNYGKSLGDAWEKSQGEMYKRTVLRRLCKTIETDFDAEQRLIYEMGGAFEFTKQPTRSRQQSPFNPPEESEVIQNDRAAETDQG
B12: SSAP_88: SEQ ID NO: 257; Raoultella planticola (protein, listed as Raoultella planticola)
chain: TKQPPIAKADLQKTQGTRVSSPKGNNDVISFINQPSMKEQLAAALPRHMTAERMIRIATTEIRKVPALASCDTMSFVSAIVQCSQLGLEPGGALGHAYLLPFGNKNEKSGKKNVQLIIGYRGMIDLARRSGQIASLSARVVREGDEFSYEFGLEEKLTHRPGENEDAPVTHVYAVARLKDGGTQFEVLTSKQIELVRSQSKAANSGPWVTHWEEMAKKTAIRRLFKYLPVSIEIQRAVSIDEKEALTIDPADTSVLTGEYSVINSESEE
B13: SSAP_149: SEQ ID NO: 318; unclassified Oscillibacter (protein, listed as Oscillibacter sp.)
chain: KEGLIQGTQSAQAAKKGPATMQDYIKKMQGEIAKALPSVLTPERFTRITLSALSTNPKLAQTTPKSFLGAMMTAAQLGMEPNTPLGQAYLIPFKNHGVLECQFQLGYKGLIDLAYRSGEVSTIQAQTVYENDEFEYELGLEPKLHHVPAKGERGEPVYFYAVFRTKDGGYGFEVMSVDDVRTHAKKYSKAYSNGPWQTNFEEMAKKTVLKKALKYAPLKTEFMRGLTSDETIKTEISEDMYSVPDETVIEAEGYEVDGDTGEVIERPADGQ

Key:
Type in all cases: cell-based
[1] = tested on: gene editing with Cas9; assay: Screen of 322 new SSAP proteins, gene editing activity with Cas9 (Table 5); design: Cas9 with SSAP activity: scale not given here
In short: (§1)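 Read-out is gene editing activity. Candidates come from sequence data mining, are made synthetically, and are tested alongside either nuclease-active Cas9 or catalytically dead dCas9.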

[2] = tested on: gene editing with dCas9; assay: Screen of 322 new SSAP proteins, gene editing activity with dCas9 (Table 5); design: dCas9 with SSAP activity: scale not given here
In short: as §1

[3] = tested on: gene editing with Cas9 and dCas9; assay: Screen of 322 new SSAP proteins, activity across all experiments (Cas9 and dCas9, Table 5); design: scale not given here
In short: as §1

Molecule | Cas9 with SSAP activity [1] | Cas9 with SSAP activity (normalized) [1] | dCas9 with SSAP activity [2] | dCas9 with SSAP activity (normalized) [2] | Activity across all experiments [3]
B1 | 0.570 | 2.381 | −7.424 | −1.335 | −3.427
B2 | −1.623 | −0.850 | −0.092 | −0.051 | −0.857
B3 | 0.287 | 0.247 | 0.082 | 0.048 | 0.184
B4 | −1.273 | −0.894 | −7.001 | −0.946 | −4.137
B5 | −4.285 | −0.748 | −6.840 | −1.230 | −5.563
B6 | −1.629 | −2.086 | −7.349 | −2.203 | −4.489
B7 | −2.249 | −0.663 | −7.293 | −1.765 | −4.771
B8 | −3.757 | −0.629 | −7.200 | −1.353 | −5.479
B9 | −0.340 | −0.087 | −7.000 | −1.112 | −3.670
B10 | −5.364 | −1.014 | −7.184 | −1.057 | −6.274
B11 | −6.123 | −0.874 | −7.375 | −1.526 | −6.749
B12 | −2.144 | −1.524 | −6.933 | −1.193 | −4.539
B13 | −1.833 | −2.092 | −6.999 | −1.192 | −4.416
